Results published in PMC5528828.

Target: MAK33 VL S20N (murine)
Assay: negative-stain transmission electron microscopy; non-fibrillar oligomers; 50 uM monomer, 25 mM acetic acid, 25 mM phosphoric acid, 50 mM NaCl, pH 2, room temperature, quiescent; number of monomers estimated from the mean particle diameter

Q: How did the stoichiometry N (monomers per oligomer) turn out when MAK33 VL S20N (domain or fragment) was run?
A: 30
